Assays:
[1] = target: HA-tagged CaM12 mutant (rat) (UniProt P0DP29); assay: co-IP; HA-CaM or mutants co-expressed with TRPA1-V5 in HEK293; IP with anti-HA.11 and Protein A/G PLUS-Agarose in 2 mM Ca2+; blot with anti-V5; band intensity by ImageJ, normalized by total TRPA1
[2] = target: HA-tagged CaM3 mutant (rat) (UniProt P0DP29); assay: as above
[3] = target: HA-tagged CaM4 mutant (rat) (UniProt P0DP29); assay: as above
CaM-agarose (Sigma) = CaM-agarose (Sigma) (UniProt P62157); assay: pull-down; CaM-agarose (Sigma) incubated with HEK293 lysate expressing a V5-His-tagged TRP channel; 20 mM Tris-HCl pH 7.4, 150 mM NaCl, 1% NP-40, 4 °C; 1 mM Ca2+ (Fig. 2A) or 2 mM Ca2+ (Fig. 2B); blot with anti-V5

TRPA1-V5-His (×6), sequence (Q8BLA8 whole entry): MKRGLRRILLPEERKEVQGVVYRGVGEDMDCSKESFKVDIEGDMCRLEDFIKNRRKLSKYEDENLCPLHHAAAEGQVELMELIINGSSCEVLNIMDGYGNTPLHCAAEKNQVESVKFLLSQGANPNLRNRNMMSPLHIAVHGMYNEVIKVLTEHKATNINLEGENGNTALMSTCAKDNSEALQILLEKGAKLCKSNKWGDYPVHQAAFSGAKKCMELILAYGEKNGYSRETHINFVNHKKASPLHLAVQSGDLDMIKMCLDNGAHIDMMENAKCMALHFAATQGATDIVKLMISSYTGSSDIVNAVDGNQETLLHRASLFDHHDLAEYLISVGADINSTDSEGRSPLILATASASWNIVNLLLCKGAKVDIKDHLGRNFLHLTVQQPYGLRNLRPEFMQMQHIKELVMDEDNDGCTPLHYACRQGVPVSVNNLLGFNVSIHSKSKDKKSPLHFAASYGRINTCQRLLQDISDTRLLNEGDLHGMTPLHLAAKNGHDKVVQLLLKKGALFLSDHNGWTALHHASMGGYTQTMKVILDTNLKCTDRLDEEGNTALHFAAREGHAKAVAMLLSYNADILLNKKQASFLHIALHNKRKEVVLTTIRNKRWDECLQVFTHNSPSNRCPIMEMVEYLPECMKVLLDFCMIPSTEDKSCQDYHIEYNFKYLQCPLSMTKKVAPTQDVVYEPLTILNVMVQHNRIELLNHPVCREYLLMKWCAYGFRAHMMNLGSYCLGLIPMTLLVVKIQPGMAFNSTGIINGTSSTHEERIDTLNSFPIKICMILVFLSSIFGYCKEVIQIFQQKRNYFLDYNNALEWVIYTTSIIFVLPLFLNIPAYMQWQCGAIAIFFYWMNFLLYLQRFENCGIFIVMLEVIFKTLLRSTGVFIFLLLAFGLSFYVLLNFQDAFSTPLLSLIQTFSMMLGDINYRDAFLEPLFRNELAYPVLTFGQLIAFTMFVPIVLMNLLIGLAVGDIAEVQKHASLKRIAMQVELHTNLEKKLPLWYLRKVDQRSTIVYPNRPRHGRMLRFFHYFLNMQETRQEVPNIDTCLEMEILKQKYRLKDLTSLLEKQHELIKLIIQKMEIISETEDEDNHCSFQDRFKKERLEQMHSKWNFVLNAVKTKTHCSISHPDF

percent reduction in TRPA1-CaM binding against wild-type CaM [1] | percent reduction in TRPA1-CaM binding against wild-type CaM [2] | percent reduction in TRPA1-CaM binding against wild-type CaM [3] | relative binding to CaM (normalized by total input) (CaM-agarose (Sigma)) | Substance
40% | 60% | 87% |  | TRPA1-V5-His (×6) (from UniProt Q8BLA8 1-1125) (natural protein)
 |  |  | 0.2 | TRPV3 (V5-His tagged) (natural protein)

— publication PMC5362816
